Reference: US20250282885A1 (VST BIO, published 2025)

What was measured:
human Sdc2 [1] = target: T1, human Sdc2 (human, UniProt P34741 19-144, limits assumed); experiment: Octet tandem binning; saturating Ab f10 19838-10-I12-A
T1 construct: Antigen of the Octet tandem binning, loaded on biosensors at 100 nM; also called huSdc2; hSdc2

human Sdc2 [2] = target: T1, human Sdc2; experiment: Octet tandem binning; saturating Ab m7 19844-R3-P1-E07
human Sdc2 [3] = target: T1, human Sdc2; experiment: Octet tandem binning; saturating Ab f5 19844-R4M-P3-E06
human Sdc2 [4] = target: T1, human Sdc2; experiment: Octet tandem binning; saturating Ab m2 19838-8G17-A
human Sdc2 [5] = target: T1, human Sdc2; experiment: Octet tandem binning; Buffer in place of a saturating Ab
human Sdc2 [6] = target: T1, human Sdc2; experiment: Octet tandem binning; saturating Ab m1 19838-20H19-AB
human Sdc2 [7] = target: T1, human Sdc2; experiment: Octet tandem binning; saturating Ab f12 19838-6-N03-A
human Sdc2 [8] = target: T1, human Sdc2; experiment: Octet BLI, heading box over the sensorgram
[9] = target: human Sdc2 on Human Umbilical Vein Endothelial Cells (HUVEC) (human, UniProt P34741 19-201); experiment: cell-based or functional assay
Chain of human Sdc2 on Human Umbilical Vein Endothelial Cells (HUVEC) (P34741 19-201 limits assumed): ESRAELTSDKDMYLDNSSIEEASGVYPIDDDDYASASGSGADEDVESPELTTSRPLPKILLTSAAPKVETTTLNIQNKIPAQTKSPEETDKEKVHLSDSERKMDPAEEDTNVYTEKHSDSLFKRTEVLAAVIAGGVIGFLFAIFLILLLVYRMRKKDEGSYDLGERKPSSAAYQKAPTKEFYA

human Sdc2 [10] = target: T1, human Sdc2; experiment: Kd (human Sdc2), summary table of the mAbs
human Sdc2 [11] = target: T1, human Sdc2; experiment: Octet tandem binning; saturating Ab m6 19838-20H19-AA (marked non-binding ligand)
human Sdc2 [12] = target: T1, human Sdc2; experiment: Octet tandem binning; saturating Ab m8 19844-R4M-P1-B01 (marked non-binding ligand)
human Sdc2 [13] = target: T1, human Sdc2; experiment: Octet tandem binning; saturating Ab f11 19838-20-H19-A
human Sdc2 [14] = target: T1, human Sdc2; experiment: Octet tandem binning; saturating Ab f3 19838-6N03-A
human Sdc2 [15] = target: T1, human Sdc2; experiment: Octet tandem binning; saturating Ab f9 19838-6-E17-A
human Sdc2 [16] = target: T1, human Sdc2; experiment: Octet tandem binning; saturating Ab m5 19844-R4M-P3-A12 (row boxed, self-self >0.09)
human Sdc2 [17] = target: T1, human Sdc2; experiment: Octet BLI, HIS1K sensor loaded with huSdc2, antibody as sample; Full R2 0.9943
human Sdc2 [18] = target: T1, human Sdc2; experiment: Octet tandem binning; saturating Ab f4 19844-R3-P3-C11
human Sdc2 [19] = target: T1, human Sdc2; experiment: Octet tandem binning; saturating Ab m3 19844-R3-P1-C02 (row boxed, self-self >0.09)
human Sdc2 [20] = target: T1, human Sdc2; experiment: Octet tandem binning; saturating Ab m4 19844-R4M-P1-A10
human Sdc2 [21] = target: T1, human Sdc2; experiment: Octet tandem binning; saturating Ab f8 19844-R4M-P2-C02
human Sdc2 [22] = target: T1, human Sdc2; experiment: Octet tandem binning; saturating Ab f6 19844-R3-P3-E09
human Sdc2 [23] = target: T1, human Sdc2; experiment: Octet tandem binning; saturating Ab f7 19844-R3-P3-A12
pig Sdc2 [24] = target: T2, pig Sdc2 (pig, UniProt F1S0L5 19-145); experiment: Octet BLI, HIS1K sensor loaded with pigSdc2, antibody as sample; Full R2 0.9708
T2 construct: also called pSdc2

human Sdc2 [25] = target: T1, human Sdc2; experiment: Octet BLI, heading box over the sensorgram; remark: listed apart in the source
mouse Sdc2 [26] = target: T3, mouse Sdc2 (mouse, UniProt P43407 19-145, limits assumed); experiment: Octet BLI, heading box over the sensorgram
T3 construct: Immobilised on Maxisorp plates for panning and ELISA; also called mSdc2; moSdc2
T3 sequence (P43407 19-145 limits assumed): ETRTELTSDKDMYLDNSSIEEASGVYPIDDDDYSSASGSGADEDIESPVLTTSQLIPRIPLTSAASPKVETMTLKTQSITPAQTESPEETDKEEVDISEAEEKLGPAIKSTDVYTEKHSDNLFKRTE

pig Sdc2 [27] = target: T2, pig Sdc2; experiment: Octet BLI, heading box over the sensorgram; the box prints nm, the table gives 4.74E-09 M
human Sdc2 [28] = target: T1, human Sdc2; experiment: Octet BLI, HIS1K sensor loaded with huSdc2, antibody as sample; Full R2 0.9663
mouse Sdc2 [29] = target: T3, mouse Sdc2; experiment: Octet BLI, HIS1K sensor loaded with moSdc2, antibody as sample; Full R2 0.8674
mouse Sdc2 [30] = target: T3, mouse Sdc2; experiment: Octet BLI, HIS1K sensor loaded with moSdc2, antibody as sample (curves 111.1, 37, 12.3, 4.1, 1.4, unit inferred); Full R2 0.8674

T1 sequence (P34741 19-144 limits assumed): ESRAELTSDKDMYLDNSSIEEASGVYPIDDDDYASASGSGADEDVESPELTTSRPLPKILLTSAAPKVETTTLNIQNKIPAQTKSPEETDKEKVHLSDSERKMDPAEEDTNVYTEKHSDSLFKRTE

Binder | raw competing-Ab binding signal (human Sdc2 [1]) | raw competing-Ab binding signal (human Sdc2 [2]) | raw competing-Ab binding signal (human Sdc2 [3]) | raw competing-Ab binding signal (human Sdc2 [4]) | raw competing-Ab binding signal (human Sdc2 [5]) | raw competing-Ab binding signal (human Sdc2 [6]) | raw competing-Ab binding signal (human Sdc2 [7]) | % Inhibition of VEGFA-induced permeability at 24hrs (20ug/ml) [9] [%] | Kd (human Sdc2 [10]) [nM] | raw competing-Ab binding signal (human Sdc2 [11]) | raw competing-Ab binding signal (human Sdc2 [12]) | raw competing-Ab binding signal (human Sdc2 [13]) | raw competing-Ab binding signal (human Sdc2 [14]) | raw competing-Ab binding signal (human Sdc2 [15]) | raw competing-Ab binding signal (human Sdc2 [16]) | raw competing-Ab binding signal (human Sdc2 [18]) | raw competing-Ab binding signal (human Sdc2 [20]) | raw competing-Ab binding signal (human Sdc2 [21]) | raw competing-Ab binding signal (human Sdc2 [22]) | further results
R3-P3-A12 (antibody, human IgG1, kappa, V domains shown, human IgG1 kappa from the phage campaign) VH: EVQLVESGGGLVQPGRSLRLSCGVSGFTFSSFGMHWVRQAPGKGLEWVAVISNDALHKNYGDSVKGRFTVTRDNSRNTLFLQMTSLRPEDTAVYYCAKDVVRGHTSGSLGSWGQGTLVTVSS VL: not shown | 0.3 | 0.618 | 0.618 | 0.548 | 0.599 | 0.459 | 0.794 | 90 | 2.8 | 0.636 | 0.619 | 0.529 | 0.704 | 0.594 | 0.61 | 0.0654 | 0.539 | 0.562 | 0.322 | Kd (human Sdc2 [8]): ~2.8 nM; Kd (human Sdc2 [17]): 2.8 nM; koff (human Sdc2 [17]): 0.00131 s⁻¹; kon (human Sdc2 [17]): 469000 M⁻¹ s⁻¹; raw competing-Ab binding signal (human Sdc2 [19]): 0.562
R3-P1-C02 (antibody, human IgG1, kappa, V domains shown) VH: EVQLVESGGGVVQPGGSLRISCVASEFPFSDFGMHWVRQAPGKGLEWVAFVRSHGSGKYYADSVKGRFTISGDKSKSTLYLQMESLRPDDAAVYYCTTLADVWGQGTTVTVSS VL: not shown | 0.235 | 0.24 | -0.0088 | 0.207 | 0.223 | 0.27 | 0.233 | 100 | 2.81 | 0.254 | 0.204 | 0.286 | 0.221 | 0.227 | 0.231 | 0.0466 | 0.126 | 0.0877 | 0.0516 | raw competing-Ab binding signal (human Sdc2 [23]): 0.103; Kd (pig Sdc2 [24]): 4.74 nM; koff (pig Sdc2 [24]): 0.0103 s⁻¹; kon (pig Sdc2 [24]): 2.16e+06 M⁻¹ s⁻¹; Kd (human Sdc2 [25]): ~2.81 nM; Kd (mouse Sdc2 [26]): ~2.44 nM; Kd (pig Sdc2 [27]): ~4.74 nM; Kd (human Sdc2 [28]): 2.81 nM; koff (human Sdc2 [28]): 0.00946 s⁻¹; kon (human Sdc2 [28]): 3.36e+06 M⁻¹ s⁻¹; koff (mouse Sdc2 [29]): 0.114 s⁻¹; Kd (mouse Sdc2 [30]): 2.44 nM
